Blank lines part the entries; values can stand above or below the substance they belong to.
What was measured:
Test in all cases: SEC; size exclusion chromatography of the purified six-His-tagged recombinant proteins; data not shown; conditions not given
[1] = biological target: Schistosoma mansoni phytochelatin synthase, full length protein (PCS1-591) (Schistosoma mansoni)
[2] = biological target: Schistosoma mansoni phytochelatin synthase, N-truncated protein (PCS66-591) (Schistosoma mansoni)
[3] = biological target: Schistosoma mansoni phytochelatin synthase, N- and C-truncated form (PCS66-300) (Schistosoma mansoni)

stoichiometry N [1]: 2
Substance: Schistosoma mansoni phytochelatin synthase, full length protein (PCS1-591) (enzyme)

stoichiometry N [2]: 2
Substance: Schistosoma mansoni phytochelatin synthase, N-truncated protein (PCS66-591) (domain or fragment)

stoichiometry N [3]: 2
Substance: Schistosoma mansoni phytochelatin synthase, N- and C-truncated form (PCS66-300) (domain or fragment)
